Reference: patent US20160208018A1 (JUNO THERAPEUTICS, published 2016)
Like-named read-outs stand apart in the source and are kept apart here. Blank lines part the entries; values can stand above or below the binder they belong to.

Assays:
[1] = biological target: T1, Human ROR1 (receptor tyrosine kinase-like orphan receptor 1) (human, UniProt Q01973 30-937); assay: flow cytometry on ROR1-expressing cells; predicted plateau relative to R12 scFv = 100%
T1 construct: also called hROR1; K562/ROR1
Method: (§1) Additionally, percent (%) maximum (max) binding to ROR1-expressing cells and % max competition with the reference antibody (R12 scFv) were calculated. Percent max binding and competition values were calculated based on predicted plateaus (measured by Prism® using four parameter non-linear regression), relative to values for R12 scFv binding and inhibition, respectively, assigned as 100% in each study.
(§2) Assays also were performed to assess competition (measured as half maximal inhibitory concentration (IC₅₀)) of the clones with the R12 scFv reference antibody for binding to ROR1-expressing cells, as described in Example 1. Percent (%) max ROR1 and % max competition, as compared to the R12 scFv reference antibody, were determined as described in Example 1.

[2] = biological target: T1, Human ROR1 (receptor tyrosine …); assay: flow cytometry on ROR1-expressing K562 and CHOK1 cells, mean (n = 4)
[3] = biological target: T1, Human ROR1 (receptor tyrosine …); assay: flow cytometry competition, competitor R12 scFv on ROR1-expressing cells, mean (n = 3)
Method: (§3) Assays also were performed to assess competition of the clones with the reference antibody (R12 scFv), for binding to ROR1-expressing cells. VH clones were titrated against 2 nM Myc-R12 on ROR1/K562 cells and competition assessed with an anti-Myc-Alexa647 secondary antibody, and the half maximal inhibitory concentration (IC₅₀) determined for respective clones.
as §2

[4] = biological target: T1, Human ROR1 (receptor tyrosine …); assay: competition with R12 scFv on ROR1-expressing cells; predicted plateau relative to R12 scFv = 100%
Method: as §1, §2

Mouse ROR1 = biological target: T2, Mouse ROR1 (mouse, UniProt Q9Z139 30-937); assay: inferred from IFN-gamma release of CAR T cells on K562/mouse ROR1 cells
T2 construct: also called mROR1; K562/mouse ROR1
Method: Cytokine release was assessed following incubation of the CAR-expressing cells with either K562/human ROR1 (hROR1) or K562/mouse ROR1 (mROR1) antigen-expressing cells. Transduced CD8+ T cells were co-cultured with antigen-expressing cells at a single effector to target (E:T). The co-cultured cells were incubated for about 24 hours, and then supernatants were collected for measurement of IFN-γ using a cytokine immunoassay.

[5] = biological target: T1, Human ROR1 (receptor tyrosine …); assay: flow cytometry on ROR1-expressing K562 and CHOK1 cells (n = 1)
[6] = biological target: T1, Human ROR1 (receptor tyrosine …); assay: flow cytometry on ROR1-expressing cells; predicted plateau relative to R12 scFv = 100%; remark: listed apart in the source
Method: as §1

[7] = biological target: T1, Human ROR1 (receptor tyrosine …); assay: flow cytometry competition, competitor 2 nM Myc-R12 scFv on ROR1/K562 cells, mean (n not given)
Method: as §3

[8] = biological target: T1, Human ROR1 (receptor tyrosine …); assay: competition with Myc-R12 scFv on ROR1/K562 cells; predicted plateau relative to R12 scFv = 100%
Method: as §3, §1

[9] = biological target: T1, Human ROR1 (receptor tyrosine …); assay: flow cytometry on ROR1-expressing K562 and CHOK1 cells, mean (n = 2)
[10] = biological target: T1, Human ROR1 (receptor tyrosine …); assay: flow cytometry competition, competitor 2 nM Myc-R12 scFv on ROR1/K562 cells, mean (n = 2)
Method: as §3

[11] = biological target: T1, Human ROR1 (receptor tyrosine …); assay: flow cytometry competition, competitor 2 nM Myc-R12 scFv on ROR1/K562 cells, mean (n = 8)
Method: as §3

[12] = biological target: T1, Human ROR1 (receptor tyrosine …); assay: flow cytometry on ROR1-expressing K562 and CHOK1 cells, mean (n = 7)
[13] = biological target: T1, Human ROR1 (receptor tyrosine …); assay: flow cytometry competition, competitor 2 nM Myc-R12 scFv on ROR1/K562 cells, mean (n = 3)
Method: as §3

[14] = biological target: T1, Human ROR1 (receptor tyrosine …); assay: flow cytometry competition, competitor R12 scFv on ROR1-expressing cells, mean (n = 4)
Method: as §3, §2

[15] = biological target: T1, Human ROR1 (receptor tyrosine …); assay: flow cytometry on ROR1-expressing K562 and CHOK1 cells, mean (n = 9)
[16] = biological target: T1, Human ROR1 (receptor tyrosine …); assay: flow cytometry competition, competitor R12 scFv on ROR1-expressing cells, mean (n = 5)
Method: as §3, §2

T2 sequence (Q9Z139 30-937): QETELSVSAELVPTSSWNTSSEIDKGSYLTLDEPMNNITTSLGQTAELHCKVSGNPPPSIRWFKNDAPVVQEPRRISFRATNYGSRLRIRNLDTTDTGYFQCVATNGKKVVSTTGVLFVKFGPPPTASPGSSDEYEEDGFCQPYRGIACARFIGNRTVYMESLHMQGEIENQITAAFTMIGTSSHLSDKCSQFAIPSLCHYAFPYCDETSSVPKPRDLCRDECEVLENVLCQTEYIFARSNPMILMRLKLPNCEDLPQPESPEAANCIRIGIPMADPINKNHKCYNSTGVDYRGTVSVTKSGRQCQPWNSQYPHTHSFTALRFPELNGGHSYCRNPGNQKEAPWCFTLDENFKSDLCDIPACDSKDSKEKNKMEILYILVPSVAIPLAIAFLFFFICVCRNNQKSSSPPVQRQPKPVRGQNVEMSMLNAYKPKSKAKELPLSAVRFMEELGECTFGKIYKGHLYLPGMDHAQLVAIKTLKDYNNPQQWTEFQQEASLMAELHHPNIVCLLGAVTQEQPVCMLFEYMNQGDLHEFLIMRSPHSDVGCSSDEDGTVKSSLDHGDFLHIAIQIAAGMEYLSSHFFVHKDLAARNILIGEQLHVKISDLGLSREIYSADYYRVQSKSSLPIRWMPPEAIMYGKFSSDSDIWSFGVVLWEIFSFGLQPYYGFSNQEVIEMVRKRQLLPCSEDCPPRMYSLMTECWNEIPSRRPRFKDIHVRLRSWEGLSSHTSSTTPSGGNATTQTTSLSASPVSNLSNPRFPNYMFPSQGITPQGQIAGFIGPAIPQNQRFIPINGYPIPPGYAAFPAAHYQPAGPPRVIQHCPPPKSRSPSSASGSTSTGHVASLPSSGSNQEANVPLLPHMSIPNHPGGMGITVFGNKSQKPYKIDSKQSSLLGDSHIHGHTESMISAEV
T1 sequence (Q01973 30-937): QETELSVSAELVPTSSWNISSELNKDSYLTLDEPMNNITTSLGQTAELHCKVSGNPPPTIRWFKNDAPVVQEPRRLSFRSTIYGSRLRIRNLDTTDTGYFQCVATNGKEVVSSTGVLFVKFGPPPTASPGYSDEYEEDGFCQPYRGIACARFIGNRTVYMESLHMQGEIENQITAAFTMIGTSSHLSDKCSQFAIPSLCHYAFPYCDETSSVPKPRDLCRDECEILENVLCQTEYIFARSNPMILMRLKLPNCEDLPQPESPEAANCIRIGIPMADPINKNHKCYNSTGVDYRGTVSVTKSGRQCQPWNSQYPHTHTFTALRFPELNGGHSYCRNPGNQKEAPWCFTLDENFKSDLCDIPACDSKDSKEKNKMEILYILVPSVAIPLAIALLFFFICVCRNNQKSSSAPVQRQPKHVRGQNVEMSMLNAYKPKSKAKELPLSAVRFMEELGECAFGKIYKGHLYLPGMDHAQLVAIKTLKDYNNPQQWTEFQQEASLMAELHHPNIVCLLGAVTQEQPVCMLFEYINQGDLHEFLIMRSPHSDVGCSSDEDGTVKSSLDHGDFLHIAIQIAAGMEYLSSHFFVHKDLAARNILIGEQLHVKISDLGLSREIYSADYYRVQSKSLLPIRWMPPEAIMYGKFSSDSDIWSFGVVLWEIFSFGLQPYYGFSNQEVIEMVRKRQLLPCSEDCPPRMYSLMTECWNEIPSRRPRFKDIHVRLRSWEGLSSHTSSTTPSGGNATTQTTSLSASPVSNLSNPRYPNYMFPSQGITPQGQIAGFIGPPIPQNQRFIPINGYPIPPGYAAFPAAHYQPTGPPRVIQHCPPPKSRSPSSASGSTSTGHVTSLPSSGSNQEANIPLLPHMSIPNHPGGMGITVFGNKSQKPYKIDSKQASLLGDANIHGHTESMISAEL

B1: Clone 48 scFv (scFv)
scFv: QVTLKESGGGLVKPGGSLRLSCAASGFTFSNAWMSWVRQAPGKGLEWVGRIKSKTDGGTTDYAAPVKGRFTISRDDSKNTLYLQMNSLKTEDTAVYYCARDFGRWSYYFDYWSQGTLVTVSSGGGGSGGGGSGGGGSQSVLTQPSSVSGTPGQRVTISCSGSSSNIGSNYVYWYQQLPGTAPKLLIYRNNQRPSGVPDRFSGSKSGTSASLAISGLRSEDEADYYCAAWDDSLSGVVFGGGTKLTVL
% Max Binding [1]: 69% | EC50 [2]: 9.2 nM | IC50 [3]: 53.7 nM | % Max Competition [4]: 55%

B3: Clone V224 (VHH)
VHH: QVQLVESGGGLVKPGGSLRLSCAASGFTFINAWMSWVRQAPGKGLEWVGRIKSKTDGGTTDYAAPVKGRFTISRDDSKNTLYLQMNSLKTEDTAVYYCARTYSSSWYESLLFDYWGQGTLVTVSS
notes: human VH-only single-domain antibody, no VL
EC50 [5]: 46.2 nM | % Max Binding [6]: 74% | IC50 [7]: 94.6 nM | % Max Competition [8]: 32%

B5: Clone V316 (VHH)
VHH: EVQLVESGGGLVRPGGSLRLSCAASGLTFSRTWMSWVRQAPGKGLEWVASINDDGSEKYYVDSVKGRFTISRDNARNSLYLQMNRLRAEDTAVYYCARVDSERFLEWYYFDYWGQGTLVTVSS
notes: as for B3
IC50 [10]: 28.8 nM | EC50 [5]: 28.7 nM | % Max Binding [6]: 78% | % Max Competition [8]: 37%

B6: Clone V95 (VHH)
VHH: QVQLVESGGGLVKPGGSLRLSCAASGFTFSNAWMSWVRQAPGKGLEWVGRIKSKTDGGTTDYAAPVKGRFTISRDDSKKTLYLQMNSLKTEDTAVYYCARGSGELRFLESYYFDYWGQGTLVTVSS
notes: as for B3
IC50 [10]: 19 nM | % Max Binding [6]: 61% | EC50 [9]: 35.5 nM | % Max Competition [8]: 36%

B7: CAR containing Clone V70 VH-only antigen-binding domain (other)
chain: QVQLLESGGGLVQPGRSLRLSCTASGFTFGDYAMSWVRQAPGKGLEWVSSISGSGRSTDHADYVKGRFTISRDNSKNTVYLQMNRLRAEDTAVYYCAKVSNYEYYFDYWAQGTLVTVSS
notes: Chimeric antigen receptor expressed on primary human CD8+ T cells; tEGFR marker is split off by T2A; also called V70 CAR; not shown: Ig-derived hinge only spacer, human CD28-derived transmembrane domain, human 4-1BB-derived intracellular signaling domai
binding result (Mouse ROR1): binds

B10: Clone V353 (VHH)
VHH: QVTLKESGGGLVKPGGSLRLSCAASGFTFSNAWMSWVRQAPGKGLEWVGRIKSKTDGGTTDYAAPVKGRFTISRDDSKNTLYLQMNSLKTEDTAVYYCARDFGRWGYYFDYWSQGTLVTVSS
notes: as for B3
IC50 [10]: 0.4 nM | % Max Binding [6]: 35% | EC50 [9]: 0.7 nM | % Max Competition [8]: 62%

B14: Clone 20 scFv (scFv)
scFv: QVTLKESGGGLVKPGGSLRLSCAASGFTFSNAWMSWVRQAPGKGLEWVGRIKSKTDGGTTDYAAPVKGRFTISRDDSKNTLYLQMNSLKTEDTAVYYCARDFGRWSYYFDYWSQGTLVTVSSNIQMTQSPSSLSASVGDRVTITCRASQSINKWLAWYQQKPGKAPKLLIHDASTLESGVPSRFSGSGSGTEFTLTISSLHPDDSATYYCQQLKSRPLSFGEGTKLEIK
notes: 262 differs only at the VH N-terminus; Printed without a linker
% Max Binding [1]: 97% | EC50 [15]: 2.6 nM | IC50 [16]: 4.7 nM | % Max Competition [4]: 77%

Further lines, results first:

binding result (Mouse ROR1): binds
B2: CAR containing Clone 48 scFv (VH-VL) (other)
chain: QVTLKESGGGLVKPGGSLRLSCAASGFTFSNAWMSWVRQAPGKGLEWVGRIKSKTDGGTTDYAAPVKGRFTISRDDSKNTLYLQMNSLKTEDTAVYYCARDFGRWSYYFDYWSQGTLVTVSSGGGGSGGGGSGGGGSQSVLTQPSSVSGTPGQRVTISCSGSSSNIGSNYVYWYQQLPGTAPKLLIYRNNQRPSGVPDRFSGSKSGTSASLAISGLRSEDEADYYCAAWDDSLSGVVFGGGTKLTVL
notes: Chimeric antigen receptor expressed on primary human CD8+ T cells; tEGFR marker is split off by T2A; also called 48 CAR; not shown: Ig-derived hinge only spacer, human CD28-derived transmembrane domain, human 4-1BB-derived intracellular signaling domai

EC50 [9]: 97.7 nM
B4: Clone V86 (VHH)
VHH: QVQLLESGGGLVQPGGSLRLSCAASGFTFSSYAMSWVRQAPGKGLEWVSAISGSGGSTYYADSVKGRFTISRDNSKNTLYLQMNSLRAEDTAVYYCARVIFGVVNIPDYWGQGTLVTVSS
notes: as for B3

IC50 [11]: 38.2 nM | % Max Binding [6]: 92% | EC50 [12]: 3.1 nM | % Max Competition [8]: 92%
B8: Clone V70 (VHH)
VHH: QVQLLESGGGLVQPGRSLRLSCTASGFTFGDYAMSWVRQAPGKGLEWVSSISGSGRSTDHADYVKGRFTISRDNSKNTVYLQMNRLRAEDTAVYYCAKVSNYEYYFDYWAQGTLVTVSS
notes: as for B3

binding result (Mouse ROR1): binds
B9: CAR containing Clone V353 VH-only antigen-binding domain (other)
chain: QVTLKESGGGLVKPGGSLRLSCAASGFTFSNAWMSWVRQAPGKGLEWVGRIKSKTDGGTTDYAAPVKGRFTISRDDSKNTLYLQMNSLKTEDTAVYYCARDFGRWGYYFDYWSQGTLVTVSS
notes: Chimeric antigen receptor expressed on primary human CD8+ T cells; tEGFR marker is split off by T2A; also called V353 CAR; not shown: Ig-derived hinge only spacer, human CD28-derived transmembrane domain, human 4-1BB-derived intracellular signaling domai

% Max Binding [6]: 37% | IC50 [13]: 3.4 nM | EC50 [9]: 0.2 nM | % Max Competition [8]: 54%
B11: Clone V18 (VHH)
VHH: QVQLVESGGGLVKPGGSLRLSCAASGFTFSNAWMSWVRQAPGKGLEWVGRIKSKTDGGTTDYAAPVKGRFTISRDDSKNSLYLQMNSLKTEDTAVYYCARDFGRWSYYFDYWGQGTLVTVSS

EC50 [9]: 129 nM
B12: Clone V102 (VHH)
VHH: QVQLVESGGGLVQPGRSLRLSCTASGFTFGDYAMSWVRQAPGKGLEWVGFIRSKAYGGTTEYAASVKGRFTISRDDSQSIAYLQMDSLKTEDTAVYYCAKVGPSWDYYFDYWGQGTLVTVSS
notes: as for B3

% Max Binding [1]: 81% | EC50 [2]: 3.2 nM | IC50 [14]: 22.8 nM | % Max Competition [4]: 70%
B13: Clone 40 scFv (scFv)
scFv: QVTLKESGGGLVKPGGSLRLSCAASGFTFSNAWMSWVRQAPGKGLEWVGRIKSKTDGGTTDYAAPVKGRFTISRDDSKNTLYLQMNSLRTEDTAVYYCARDFGRWSYYFDYWSQGTLVTVSSQPVLTQPHSVSESPGKTVTISCTRSSGNIASNFVQWYQRRPDGATTNVIYEDTQRPSGVSGRFSGSIDRSSNSASLTISGLRAEDEADYYCQSYDGRNLMFGGGTKVTVL
notes: the two differ at the VH N-terminus; Printed without a linker
